Consider 18 sequences from a protein production outcome set (Wang et al. 2014).

This series in a line: label from the status in PepcDB records.
Consider “MERPVPVRVEPRQLALDLPHAESLSREDFLEGSANTAALSLIESWPDWPNRIMMLVGPEGSGKSHLAAIWAELAGARSTAAQALNAAAVPGALATGAVVVEDLVPGSFDERALFHLMNMAREDEAYVLFTGRVEPSALSIELRDLKSRLRTVPVVSLLPPDDALFRALIVKFCADRQMCIDAALVGYLANRIDRSFVAARQVVEKLDTTALRLGRPVTRALASEVLRADLEHHHHHH”, for which the protein production result is listed as “failed”.

Turning to “MSLSFLKHVQDCNTHDLSNFVRFVIEGRRVGWVRKALAQRLKAHGRVFDVTRDAVLLSASLRTPQSRTRAVADVVDRLADEGVVPAPRGELYRVNQSWGEPTLMLLDRAVVPTFGVRAYGVHLNGYVGAGADLHLWIGRRSPDKSVAPGKLDNMVAGGQPADLSLRQNLIKECAEEADLPEALARQAIPVGAITYCMESPAGIKPDTLFLYDLALPEDFRPHNTDGEMADFMLWPAAKVVEAVRTTEAFKFNVNLTVIDFAIRHGLIDPDNEPDYQEILAGLRGRPRERAASEGHHHHHH”, the protein production result is “not failed”.

As for “MATKARVMYDFAAEPGNNELTVTEGEIITVTNPNVGGGWLEGKNNKGEQGLVPTDYVEILPNDGKDPFSC”, the protein production result is “not failed”.

Take “FHPVYSVQLEQKLVEKFNLKRALISLDQPNTNEQRKQVAALVSSYLNNNLQEGMAVAVGQGQNVAAVADHAGIVTQRNARFVSAIGGTHRSGDIINADHICRRLAKKYGGSSETLYAPAYVNDPSLRSAFMEHATIKETLSQARKAEFALVGIGDMDENSHMVKLGFFTPKEFVEARLNDGIVGDIGGFDFFKLDGTDADTLMRGRVIGLEMEDLRQIPNVVAMASESRKALSIMGALRTGVIDVLATSVSCAMALLNLAENEE”: the protein production result is recorded as “not failed”.

“MAALSNLKQCPPFSTLPDLALRHNHIPELERYPQINLNSELLANPAGQRYYGGQSFVSVNEGVLKRIARSFFNGGFWKTLEEARSPETREQAPLIAQAGDLIAQFLGLATGLRILPHTQQLSAERIAQFVETRDWLNSDVRYLAWNQHFFCLAVAGVDDVVRIYTKSSSATTATVLKSPSQTQITCMAWRPLCASEIVIGCRQGLCFWEVDSTLHLGRTNAPSEIFKYPNNLPITSMQWNKDGTQLATASIGDRSIIIWQPDTGMMQPLKRLGPPGSLLKWSPDNDWLFAATVDRVFRVWNCHQQWTTERWVCGPGGYVQTACWSPCGRFLLFVSSAEPILYRLQFVQQSLLSSSADEKEILPIADLNACSIDANRTLVGGPAQQLAWDPHGNYLVVTFKATNCIAVFRTFIQKFDLQISAAYYLSGETAAEHPSFICFQPLYEDNDRSVLTIAWSSGRIQYYAFD”: the protein production entry is recorded as “failed”.

Consider “MKTLFLQYPACSTCQKAKKWLIENNIEYTNRLIVDDNPTVEELKAWIPLSGLPVKKFFNTSGVVYKELKLSSKLPTMTEEEQIALLATNGKLVKRPLVVTERFVLVGFKPEEWEKL”, for which the protein production entry is “not failed”.

Turning to “MNPTTLADVDTVIINANILTLDRDCPHAQAIAFAAGRILALGTTQELSPLAGRAATVVDARGSTLLPGFIDSHSHLMFGGVVAQALDLTEAACLSDLLDMVRSRAQSTPEGEWIRGYGVAAGRLKEKRYPTRQELDQVSGGRPVWLAEDSFHASLVNSKAFRMLEIPLSTPGVELAADGSPTGAFLNDAANVPARQRVFGFISDDEARQMLQHVTQLGATRGVTTVHAFEGSRMSADRDIELLMRFRHELPIHVVPYYETFDVERAMQLGVSGVGGCGRNCLDGMPNIQTAAMVDPYCCSEERGSLFQESIKLHNFVIAAFERGMQVGMHAMGDAAIEQLLATYERAIEETGRTDLRPRIEHFHVPSRDHVRRAADLGVGLAVQPIFTHLWGGRDGIFFERLGERRYKRIDTYREILDSGAIASCGADLPVHPADPLRWIQLLVDNQIDRDQSVSMTEAIRMCTYNGAWLGFQESETGTLAVSKAADAVMLGRDPHQCMPHEIAAIPILKTLGGKLVFESSRPLEHHHHHH”, the protein production entry is recorded as “failed”.

In the case of “MMKQNPILITGGTGTVGSRIASRLIKLGYRVRIASRKKGALADAEYVYFNWKYASSFTPALEQVKQIYLVAPVGVFDPAPYVLPFLKEAKRLGAKRVVMQSASVVSENGPVFGALHQAVREFPEWTVLRPSYFMQNFINVQHRMSIQTEGRITTASGEGKLGFIDADDIAETAVRALIDDVPHQTHHILTGPEALSYAEAAEIIGAAAGRRVEHVSISRSELQHKMEAGGLPADYAHFMAKLDEAISHGAEHRVTDTVKRVTGKEPRSLSEFAAAHAAYWTSFWTELEHHHHHH”, the protein production entry was “failed”.

Consider “MIRFEIHGDNLTITDAIRNYIEEKVGKLERYFNNVPNAVAHVRVKTYSNSTTKIEVTIPLKDVTLRAEERHDDLYAGIDLITNKLERQVRKYKTRVNRKHRDRGDQDIFVAEVQESTTNNHADDIESENDIEIIRSKQFSLKPMDSEEAVLQMNLLGHDFFIFTDRETDGTSIVYRRKDGKYGLIETTELEHHHHHH”, for which the protein production result was “not failed”.

With “MIRFEIHGENLTITDAIRNYIEEKIGKLERYFNDVPNATAHVKVKTYQNSATKIEVTIPLKKVTLRAEERNDDLYAGIDLINNKLERQVRKYKTRVNRRNRNRGEQEAFASLPEEKEAVEIQNDENEADNEIEIIRAKNFSLKPMDSEEAVLQMDLLGHDFFIFTDRETDGTSIVYKRKDGKYGLIETTELEHHHHHH”, the protein production entry is “failed”.

As to “MENTAPDVLDAGAAELPVERLKPELADVPNEKEDEDEAVCGGAEGVVELVVELAVLFKKENPVEAENGEAEAFEVLDVDEELKVDTPNGDGEEVVAPDEEDAKRDGVEPAEEDEPKNGEEPVAPKIDGEEPEADEATLKEGDEPVAPKMDDEEPGADEATLKDGVAPVADDGAPKRGDVEVAADEDAPKREELEAEADEGAENKEGEDPKRGVEPLAGAAPNGDDDGVAAEEAGAPNRDDDGVAVEEAEEVTNPKGEEPGAAEEALVVDEPNSDGAGADEEAAVPNPNDGVVEAGVTEAEDPNPNDGVDEEAEEPNPKEGVEEAPNPNDGVVEEAGVDDTEDPKPNPVELGFEDWLKEKDNGEVVDEAEEELVAEEDPNENPPTELD”, the protein production result was “failed”.

For “MARAPARARGSRGLNCLAGSQQTRIPAQETDDLFTTCQFGETEEDTAVEEAETIDCLSIPKQKLAQSQKKINQFINEKMSTKANKELIRCFILSQIVFGKEHWKCAQALANLAYGYLTLRGLPAQAKKHAESARNTLLTWKRNTTSDKEKKEILETLVILYYTLGIAWLLQNHGKQAYIHLQKAQRNMKELKELNNGSIYEIQVSDKDLTIALGRASLAMHRMHLALAYFEKAICGVILAKGHDTSDLISLYEEIAQIEQLRKNHEQAIQYLQQAYSISVSSFTEVSPQTAEASALLAKAYAMSGESQHRDAVEIYFIRSISTYQTLGSEDYETLTTIEDFCTWLIQNGEKQEAYRLLKSTLNSCTFGDCGKKVAETFYNMGSICFAKGELREAIALLRKCLMIQSLIYGSEHTKSIETKSLLSLLQRPISRFPRTAEQSHGVVARAQMSKISAGMALSASASHWNNQSQMSWDSACIPMGASVLYDTSFRNAVKYSLDCHGQQPEFLSCGGSAS”, the protein production entry is recorded as “failed”.

As for “MIEGHGDDSYKYRHPIRSNFSSNVYNKVNLDGLRAHLCGRISAISAYPEPEPYTLEARLADRHALPAASVCVTNGATEAIYLIAQTFRGTNTAILMPTFSEYADACRMHGHKVTSLYTLDAVPEDVRMVWLCNPNNPTGEVRDKKYLTELIAKHPRVCFVIDQSYEYFTLKELFTAQEAAGFPNVILLHSMTKRYAIPGLRLGYVTAHPGLIGRLRTNRMPWSVNQLAIEAGLYLLSEGIPAGLSMKDYLAECARLKSSLEAIGGLEVWPTDTHFMLVCLRFGKAAALKEYLAREEGILIRDASNFEGLDERFFRIATQTPEENDELVGAIAKWMAE”, the protein production result is given as “failed”.

In the case of “MEGSIASRARLPRATQMAVATLDTNPRMRRPPREPAPPPSPLHQLVVTLATGKWLLLAVALLGGILAGLAGFTRPVLFEAATQIIIDAPSTGTANATATAQDSLDSSIDDHLTMLSSQAHLRRVLTALRQPQAADAAGKSGISAVPPTSGSFVGNLLSRVWSKGGPAAESPEAVDAAALKTLRSGMRVGQELRSRVITIGFTDTSPVRAALVANTFAQVYIEDLVQKRRASDQRELESLVASLPQVQRDLVDATDRLETYRLTHGAVDQSAANNAANETAELGRQIFLSKANLSASESRLRHIEDLRKAGAPVSAIAEEIGSPVLTDLVARQSGAAADGDLGTAINREIEQGIARIAAEANVYRAQVAALEDRKRVRDAAVADTASQLSGLRALEPQVTIVTQHYNELLGRQQDLIRRIAAPSPGVAVLSTAWPPSNPITLPRIFLVPPGMIVFGLMAAVFVLVRNMFNQTLRSEAEAEAELGIPCVGLLPKVSGLHARQLRHLVLVQQNSPFSRAATSLLVTAAPTQGKGQPPHMILVTSSILDDGKTELAWSLALAATRLGGRVLFLDLDRKDARLTNEFRGEFGTIKAHNSFGDYVSERCVLQDAITRMPEIGIDLMAAPGPSEDLLTLLSTVDKSQFTEELLSVYDVVIINGPLGLGGPETRLLKRWADAVLFAVRWAKTRRSIARGVLESLRAGGSVTVPIGSVLTQVNLKRYAGSRLDDNADLLLERV”, the protein production result is recorded as “failed”.

Regarding “MASVSGNSTAPDSAAVVTVQDPLSDYVQGLFLDMKGDYWGAIDIFRKVLVRKPADPAVHYSISQSYYRLAVLDSARVYGEAAVRLDPSNRYYLRYLAVVAHDMRDYDRAAELYGQASLLEPDRTEIMYLQGLEYMAAKRLEPALEVFRKAVRIDPYNEAAFAQTLALEIALKHYPEAIDTSKQLLKLGGNERKIGITLAELYTKTGQETLAVQTLQELIAGDRSNITYWIALFDHYIMVGRNDDFHRELAVFLERASLPPESLHDLAKLYILRSGKDSLYVAPTIALLDELTARRPRDSELFMLKGMFGMMHGHQQEGVVLFRKAVQLDSSNATAWEYLISTQLDLGQKRQAFALLAKARRRLPGQRFRWSVLEGSLLLSSHKLRRAVAVLETVAGTKRKPGDPNLLIQANINLAMACDLLGMKKRSRSAYERVLDLDPHNTLAMNNLAYLFTEEGITLRKALRLATNAVMLEPENGVYLDTLGWVHYKLGNFELARQFLEKAAATGLDEPDIYRHLGEVYRKLGNEPKAREMLEKARTVEKTQGNKKSGH”, the protein production entry is listed as “failed”.

Turning to “MFSMILSGLICGALLGFVMQRGRFCLTGGFRDMYIVKNNRMFYALLIAISVQSVGVFALIQAGLLTYEAGAFPWLGTVIGGYIFGLGIVLAGGCATGTWYRAGEGLIGSWIALFTYMVMSAVMRSPHASGLNQTLQHYSTEHNSIAETFNLSVWPLVAVLLVITLWVVMKELKKPKLKVATLPPRRTGIAHILFEKRWHPFVTAVLIGLIALLAWPLSEATGRMFGLGITSPTANILQFLVAGDMKYINWGVFLVLGIFVGSFIAAKASREFRVRAADAQTTLRSGLGGVLMGFGASIAGGCSIGNGLVMTAMMTWQGWIGLVFMILGVWTASWLVYVRPQRKARLATAAAN”, the protein production result is given as “failed”.

For “MRDYVEIGMGREARRTYHLDSVAIVPSRRTRSSKDVDTTWHIDAYTFDIPFMSHPTDALATPDFVIEMDKQGGLGVINAEGLWGRHADLDAAIQEVITAYGDDELDLGSCNRATKKLQELHAAALDTELLVERIAQVRSSGAT”, the protein production entry is “failed”.

Regarding “DDDDDNGGSSVMNITGIYLEDAKSNVPDRLVDFARLGQLIRIEGEGFNGLKKVYINGYNCYFNPVFVSNKSFLVSVNSKVPTTEADENVRNTIRLVKDGGEYVYDFQIRAAAPSITKISNCMPNVGEPIIVYGSGLTEIAKVVFPGNVVVTEGIISDLDGEYFMVDMPAGVSEEGGSIFVEGSNGGAYSPAYFNYKKGLLLNFDGVGAQGAWGDSESMIQTTELESASIGEGNVSQGAYCRLPLERQLPVAAAKNRCAEVWTAGNGTDPDWLTLGVPAETPVAECAIQFEIYVPEPWSESGFLKICGQNGFNGGEWERDCYNYVPWLVDGKIVPFQTTGWQTVTVPFSEFYKSKASSGAWTTFADVTATRASASYANFGFYFENSDITLDKITGASSDKETEFLSKATSVKIYIDNWRVVPLTKPEYTDFPDEEEDAE”, the protein production entry is given as “not failed”.
